Residue numbers refer to the chain shown, from its start. In names and notes the source's numbering stands.
T1: EsCas13d, nuclease-dead (Eubacterium siraeum, UniProt B0MS50, R295A;H300A;R849A;H854A)
T1 sequence: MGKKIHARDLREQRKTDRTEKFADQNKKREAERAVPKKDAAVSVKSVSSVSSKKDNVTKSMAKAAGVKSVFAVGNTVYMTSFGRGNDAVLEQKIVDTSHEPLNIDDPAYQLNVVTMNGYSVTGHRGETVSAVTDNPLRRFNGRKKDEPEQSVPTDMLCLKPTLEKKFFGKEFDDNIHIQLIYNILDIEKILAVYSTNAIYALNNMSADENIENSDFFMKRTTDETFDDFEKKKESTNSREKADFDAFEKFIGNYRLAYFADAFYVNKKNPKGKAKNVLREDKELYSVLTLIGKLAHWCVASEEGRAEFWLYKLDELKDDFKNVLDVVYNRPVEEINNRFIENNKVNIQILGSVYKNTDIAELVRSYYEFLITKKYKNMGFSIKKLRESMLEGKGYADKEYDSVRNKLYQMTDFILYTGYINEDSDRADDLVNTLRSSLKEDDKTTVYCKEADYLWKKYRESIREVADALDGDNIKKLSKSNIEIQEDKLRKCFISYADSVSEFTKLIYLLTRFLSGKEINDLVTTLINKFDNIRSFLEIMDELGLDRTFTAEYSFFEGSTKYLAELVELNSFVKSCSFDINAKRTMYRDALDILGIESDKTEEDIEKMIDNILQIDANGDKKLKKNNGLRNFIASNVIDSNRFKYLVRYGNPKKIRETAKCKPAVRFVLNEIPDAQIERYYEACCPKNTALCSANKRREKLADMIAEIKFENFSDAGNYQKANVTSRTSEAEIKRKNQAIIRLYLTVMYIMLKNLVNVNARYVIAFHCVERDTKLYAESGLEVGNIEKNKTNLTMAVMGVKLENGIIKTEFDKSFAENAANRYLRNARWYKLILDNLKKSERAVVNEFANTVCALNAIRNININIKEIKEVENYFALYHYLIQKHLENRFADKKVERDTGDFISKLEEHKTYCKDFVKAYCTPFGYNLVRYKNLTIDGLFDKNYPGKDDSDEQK

B1: target 2 MT 5'PFS UCG 3'PFS AUA (mixed)
RNA 1: CACCCGUGCAAAAUUGCAGGGGUCUAAAACCUUCUCCAAAUUGUUUCAUCCU
RNA 2: GGGAAUGGAUCCACAUCUACGAAUUCUCGAGGAUGAAACAAUUUGGAGAAGAUAAGAUCGGAAGAGCACACGU
B2: target 2 MT 5'PFS GAU 3'PFS UGA (mixed)
RNA 1: B1 RNA 1
RNA 2: B1 RNA 2 with U27G, C28A, G29U, A52U, U53G
B3: target 2 MT 5'PFS GUU 3'PFS CUC (mixed)
RNA 1: B1 RNA 1
RNA 2: B1 RNA 2 with U27G, C28U, G29U, A52C, A54C
B4: target 2 MT 5'PFS GGA 3'PFS AUA (mixed)
RNA 1: B1 RNA 1
RNA 2: B1 RNA 2 with U27G, C28G, G29A
B5: target 2 MT 5'PFS CAC 3'PFS CGA (mixed)
RNA 1: B1 RNA 1
RNA 2: B1 RNA 2 with U27C, C28A, G29C, A52C, U53G
B6: target 2 MT 5'PFS GUU 3'PFS CUG (mixed)
RNA 1: B1 RNA 1
RNA 2: B1 RNA 2 with U27G, C28U, G29U, A52C, A54G
B7: target 2 MT 5'PFS GAC 3'PFS UCU (mixed)
RNA 1: B1 RNA 1
RNA 2: B1 RNA 2 with U27G, C28A, G29C, A52U, U53C, A54U
B8: target 2 MT 5'PFS ACC 3'PFS AAA (mixed)
RNA 1: B1 RNA 1
RNA 2: B1 RNA 2 with U27A, G29C, U53A
B9: target 2 MT 5'PFS ACC 3'PFS AAU (mixed)
RNA 1: B1 RNA 1
RNA 2: B1 RNA 2 with U27A, G29C, U53A, A54U
B10: target 2 MT 5'PFS UUA 3'PFS UCA (mixed)
RNA 1: B1 RNA 1
RNA 2: B1 RNA 2 with C28U, G29A, A52U, U53C
B11: target 2 MT 5'PFS GCU 3'PFS CAG (mixed)
RNA 1: B1 RNA 1
RNA 2: B1 RNA 2 with U27G, G29U, A52C, U53A, A54G
B12: target 2 MT 5'PFS GGA 3'PFS AUU (mixed)
RNA 1: B1 RNA 1
RNA 2: B1 RNA 2 with U27G, C28G, G29A, A54U
B13: target 2 MT 5'PFS GAC 3'PFS UCG (mixed)
RNA 1: B1 RNA 1
RNA 2: B1 RNA 2 with U27G, C28A, G29C, A52U, U53C, A54G
B14: target 2 MT 5'PFS UAU 3'PFS CCG (mixed)
RNA 1: B1 RNA 1
RNA 2: B1 RNA 2 with C28A, G29U, A52C, U53C, A54G
B15: target 2 MT 5'PFS GAC 3'PFS UCA (mixed)
RNA 1: B1 RNA 1
RNA 2: B1 RNA 2 with U27G, C28A, G29C, A52U, U53C
B16: target 2 MT 5'PFS GGA 3'PFS AUG (mixed)
RNA 1: B1 RNA 1
RNA 2: B1 RNA 2 with U27G, C28G, G29A, A54G
B17: target 2 MT 5'PFS GAU 3'PFS UGU (mixed)
RNA 1: B1 RNA 1
RNA 2: B1 RNA 2 with U27G, C28A, G29U, A52U, U53G, A54U
B18: target 2 MT 5'PFS CAC 3'PFS AGC (mixed)
RNA 1: B1 RNA 1
RNA 2: B1 RNA 2 with U27C, C28A, G29C, U53G, A54C
B19: target 2 MT 5'PFS ACC 3'PFS AAC (mixed)
RNA 1: B1 RNA 1
RNA 2: B1 RNA 2 with U27A, G29C, U53A, A54C
B20: target 2 MT 5'PFS CAC 3'PFS CGC (mixed)
RNA 1: B1 RNA 1
RNA 2: B1 RNA 2 with U27C, C28A, G29C, A52C, U53G, A54C
B21: target 2 MT 5'PFS UUA 3'PFS UCG (mixed)
RNA 1: B1 RNA 1
RNA 2: B1 RNA 2 with C28U, G29A, A52U, U53C, A54G
B22: target 2 MT 5'PFS GGA 3'PFS AUC (mixed)
RNA 1: B1 RNA 1
RNA 2: B1 RNA 2 with U27G, C28G, G29A, A54C
B23: target 2 MT 5'PFS UAU 3'PFS AUC (mixed)
RNA 1: B1 RNA 1
RNA 2: B1 RNA 2 with C28A, G29U, A54C
B24: target 2 MT 5'PFS UUA 3'PFS UCU (mixed)
RNA 1: B1 RNA 1
RNA 2: B1 RNA 2 with C28U, G29A, A52U, U53C, A54U
B25: target 2 MT 5'PFS GCA 3'PFS UCC (mixed)
RNA 1: B1 RNA 1
RNA 2: B1 RNA 2 with U27G, G29A, A52U, U53C, A54C
B26: target 2 MT 5'PFS GAU 3'PFS UGC (mixed)
RNA 1: B1 RNA 1
RNA 2: B1 RNA 2 with U27G, C28A, G29U, A52U, U53G, A54C
B27: target 2 MT 5'PFS GUU 3'PFS CUA (mixed)
RNA 1: B1 RNA 1
RNA 2: B1 RNA 2 with U27G, C28U, G29U, A52C
B28: target 2 MT 5'PFS UAU 3'PFS CCA (mixed)
RNA 1: B1 RNA 1
RNA 2: B1 RNA 2 with C28A, G29U, A52C, U53C
B29: target 1 C7A,A18G (mixed)
RNA 1: CACCCGUGCAAAAAUGCAGGGGUCUAAAACUGAGCGGAUAACCUCUCUAUGG
RNA 2: GGGAAUGGAUCCACAUCUACGAAUUCGUACCAUGGAGAGGUUAUACGCUCACCGAGAUCGGAAGAGCACACGU
B30: target 1 G5A,C7U (mixed)
RNA 1: B29 RNA 1
RNA 2: B29 RNA 2 with G34A, A45U, G47A
B31: target 1 insG 3' of 18,insU 3' of 17 (mixed)
RNA 1: B29 RNA 1
RNA 2: GGGAAUGGAUCCACAUCUACGAAUUCGUACCAUAGGUAGAGGUUAUCCGCUCACCGAGAUCGGAAGAGCACACGU
B32: target 1 G15U,A16G (mixed)
RNA 1: B29 RNA 1
RNA 2: B29 RNA 2 with G34A, A36G, G37U, A45C

Molecular target: T1, EsCas13d, nuclease-dead
Test: crRNA (strand 1, pre-loaded); Mg2+; 40 mM Tris-HCl pH 7.5, 150 mM NaCl, 6 mM MgCl2, 1 mM DTT, 0.1% Tween-20, 0.2 mg/ml BSA; 25 C; 10 min per concentration, then washed
Conditions: tags: His6-TwinStrep-SUMO cleaved; N-terminal SNAP kept (SNAP-Surface 488); label: 3' end held by stalled T7 RNA polymerase

| Binder | Kd [nM] |
| --- | --- |
| B1 | 29 ± 9 |
| B2 | 19 ± 5 |
| B3 | 20.4 ± 2.3 |
| B4 | 10.2 ± 1.5 |
| B5 | 3.01 ± 0.34 |
| B6 | 21.3 ± 2.8 |
| B7 | 27 ± 6 |
| B8 | 9.3 ± 2.7 |
| B9 | 8 ± 1.2 |
| B10 | 20 ± 4 |
| B11 | 17 ± 4 |
| B12 | 9 ± 1 |
| B13 | 15.2 ± 2.7 |
| B14 | 55 ± 8 |
| B15 | 13.8 ± 3.4 |
| B16 | 9.8 ± 0.9 |

| Binder | Kd [nM] |
| --- | --- |
| B17 | 21.2 ± 2.2 |
| B18 | 1.87 ± 0.32 |
| B19 | 10.5 ± 3.1 |
| B20 | 1.69 ± 0.2 |
| B21 | 25 ± 4 |
| B22 | 12.4 ± 1.9 |
| B23 | 53 ± 9 |
| B24 | 28 ± 4 |
| B25 | 32 ± 4 |
| B26 | 14.9 ± 1.9 |
| B27 | 14 ± 1.9 |
| B28 | 37 ± 15 |
| B29 | 50 ± 8 |
| B30 | 7.7 ± 0.5 |
| B31 | 30.3 ± 2.6 |
| B32 | 27.1 ± 2.2 |
